Measurements reported in paper PMC10988696, “FLIM‐FRET‐based analysis of S100A11/annexin interactions in living cells” (FEBS Open Bio, 2024).
Where two headings read alike, the source gives them in different places.

T1: ANXA4-EGFP (human, UniProt P09525 1-319)
T1 construct: human annexin A4, PCR amplified from A431 cDNA; cloned in pEGFP-N1 (HindIII, BamHI); also called annexin A4; source: U2OS cells, transfected (calcium phosphate), in living cells; not shown: EGFP, C-terminal, kept
T1 sequence (looked up): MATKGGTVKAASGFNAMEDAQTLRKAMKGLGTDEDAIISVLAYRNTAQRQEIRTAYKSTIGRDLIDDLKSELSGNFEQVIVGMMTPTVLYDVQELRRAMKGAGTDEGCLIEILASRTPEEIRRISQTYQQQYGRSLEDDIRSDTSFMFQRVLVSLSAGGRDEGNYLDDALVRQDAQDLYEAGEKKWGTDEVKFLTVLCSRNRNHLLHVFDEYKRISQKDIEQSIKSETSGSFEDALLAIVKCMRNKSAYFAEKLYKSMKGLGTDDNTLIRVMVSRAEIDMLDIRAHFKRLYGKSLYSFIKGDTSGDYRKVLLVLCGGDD

T2: AnxA6-EGFP (rat, UniProt P48037 1-673)
T2 construct: rat annexin A6; plasmid provided by C; End of the tag read from the label AnxA6-EGFP; also called rat annexin A6; source: U2OS cells, transfected (calcium phosphate), in living cells; not shown: EGFP, C-terminal, kept
T2 sequence (looked up): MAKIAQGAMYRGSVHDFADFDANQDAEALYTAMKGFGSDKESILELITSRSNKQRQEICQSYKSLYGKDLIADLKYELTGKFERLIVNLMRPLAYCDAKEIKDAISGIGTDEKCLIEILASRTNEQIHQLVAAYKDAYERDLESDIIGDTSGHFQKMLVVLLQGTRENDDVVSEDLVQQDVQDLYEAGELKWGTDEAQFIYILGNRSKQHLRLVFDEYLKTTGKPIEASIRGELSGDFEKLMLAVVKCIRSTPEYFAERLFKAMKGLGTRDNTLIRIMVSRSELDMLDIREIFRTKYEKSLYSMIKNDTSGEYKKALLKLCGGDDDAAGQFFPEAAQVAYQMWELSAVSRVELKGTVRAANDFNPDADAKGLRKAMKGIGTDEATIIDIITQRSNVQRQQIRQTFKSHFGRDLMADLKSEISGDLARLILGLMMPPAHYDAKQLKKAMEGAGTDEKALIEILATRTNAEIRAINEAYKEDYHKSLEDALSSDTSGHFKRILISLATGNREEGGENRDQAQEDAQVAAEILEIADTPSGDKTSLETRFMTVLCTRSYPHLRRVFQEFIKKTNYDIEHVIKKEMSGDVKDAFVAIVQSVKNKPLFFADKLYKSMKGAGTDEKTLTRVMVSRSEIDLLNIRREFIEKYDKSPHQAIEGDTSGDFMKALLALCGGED

T3: ANXA1-EGFP (human, UniProt P04083 1-346)
T3 construct: human annexin A1, PCR amplified from A431 cDNA; cloned in pEGFP-N1 (XhoI, BamHI); End of the tag read from the label ANXA1-EGFP and the vector pEGFP-N1; also called annexin A1; source: U2OS cells, transfected (calcium phosphate), in living cells; not shown: EGFP, C-terminal, kept
T3 sequence (looked up): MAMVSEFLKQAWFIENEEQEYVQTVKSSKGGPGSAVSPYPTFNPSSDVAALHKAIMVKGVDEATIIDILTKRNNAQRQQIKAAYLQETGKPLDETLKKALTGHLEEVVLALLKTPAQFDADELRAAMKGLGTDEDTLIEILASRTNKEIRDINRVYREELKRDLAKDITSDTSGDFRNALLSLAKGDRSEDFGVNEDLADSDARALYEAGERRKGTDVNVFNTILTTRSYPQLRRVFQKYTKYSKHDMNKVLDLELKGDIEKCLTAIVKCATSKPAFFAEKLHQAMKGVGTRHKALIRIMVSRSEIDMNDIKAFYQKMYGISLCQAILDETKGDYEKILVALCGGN


Columns and labels:
Test in all cases: FRET or BRET; FLIM-FRET (EGFP donor lifetime, mCherry acceptor) in living U2OS cells co-transfected with both constructs, imaged in PBS 42-45 h after transfection, normal cytosolic calcium; E = 1 - tauDA/tauD from amplitude-weighted mean lifetimes
EGFP-ANXA2 = biological target: T4, EGFP-ANXA2 (human, UniProt P07355 1-339)
T4 construct: human annexin A2 (ANXA2) with the fluorescent protein tag in the altered orientation (EGFP-ANXA2); The cloning of this orientation is not described in the methods; source: U2OS or HEK293T cells, transfected (calcium phosphate), in living cells; not shown: EGFP, N-terminal, kept
T4 sequence (P07355 whole entry): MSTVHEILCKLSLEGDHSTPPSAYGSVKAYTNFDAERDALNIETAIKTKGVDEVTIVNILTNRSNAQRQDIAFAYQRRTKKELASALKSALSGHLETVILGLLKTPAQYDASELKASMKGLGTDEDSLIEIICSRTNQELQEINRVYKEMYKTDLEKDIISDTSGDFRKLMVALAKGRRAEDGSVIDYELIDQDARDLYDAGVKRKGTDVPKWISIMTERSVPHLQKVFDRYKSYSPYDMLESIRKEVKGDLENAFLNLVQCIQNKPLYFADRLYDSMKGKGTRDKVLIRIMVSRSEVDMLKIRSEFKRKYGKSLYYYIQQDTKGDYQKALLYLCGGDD

ANXA2-EGFP = biological target: T5, ANXA2-EGFP (human, UniProt P07355 1-339); conditions: partners not purified
T5 construct: human annexin A2 (ANXA2); EGFP is the FRET donor; also called annexin A2; source: U2OS cells, transfected (calcium phosphate), in living cells; not shown: EGFP, C-terminal, kept
T5 sequence (P07355 whole entry): as above

ANXA4-EGFP = biological target: T1, ANXA4-EGFP; conditions: partners not purified
AnxA6-EGFP = biological target: T2, AnxA6-EGFP; conditions: partners not purified
ANXA1-EGFP = biological target: T3, ANXA1-EGFP; conditions: partners not purified

| FRET efficiency (E) (EGFP-ANXA2) [%] | FRET efficiency (E) (ANXA2-EGFP) [%] | FRET efficiency (E) (ANXA4-EGFP) [%] | FRET efficiency (E) (AnxA6-EGFP) [%] | FRET efficiency (E) (ANXA1-EGFP) [%] | FRET efficiency (E) (EGFP-ANXA2; partners not purified) [%] | Molecule |
| --- | --- | --- | --- | --- | --- | --- |
| 3.7 | – | – | – | – | – | S100A11ΔCa-mCherry (from UniProt P31949 1-105) (natural protein) |
| – | 7.5 | ~5 | ~6 | 5.3 | ~9 | S100A11-mCherry (natural protein, human, UniProt P31949 1-105, looked up, human S100A11 wild type; cloned in pmCherry-N1 (EcoRI, BamHI); End of the tag read from the label S100A11-mCherry and the vector pmCherry-N1; also called S100A11wt; wild-type S100A11-mCherry; source: U2OS or HEK293T cells, transfected (calcium phosphate), in living cells; not shown: mCherry, C-terminal, kept) MAKISSPTETERCIESLIAVFQKYAGKDGYNYTLSKTEFLSFMNTELAAFTKNQKDPGVLDRMMKKLDTNSDGQLDFSEFLNLIGGLAMACHDSFLKAVPSQKRT |
